# Measurements published in article PMC2746994 (Biochemistry, 2009).
# B1: INCENP 1-69, His6-tagged (domain or fragment)
# chain: MGTTAPGPIHLLELCDQKLMEFLCNMDNKDLVWLEEIQEEAERMFTREFSKEPELMPKTPSQKNRRKKR
# B2: GB1Borealin 13-92 (domain or fragment)
# chain: TNSLRRRKLASFLKDFDREVEIRIKQIESDRQNLLKEVDNLYNIEILRLPKALREMNWLDYFALGGNKQALEEAATADLD
# How the values were obtained:
# [1] = target: Survivin-GB1Borealin f.l. complex (human, UniProt O15392;Q53HL2); experiment: ITC
# [2] = target: Survivin, non-tagged (human, UniProt O15392 1-142); experiment: SEC
# Chain of Survivin, non-tagged (O15392 whole entry): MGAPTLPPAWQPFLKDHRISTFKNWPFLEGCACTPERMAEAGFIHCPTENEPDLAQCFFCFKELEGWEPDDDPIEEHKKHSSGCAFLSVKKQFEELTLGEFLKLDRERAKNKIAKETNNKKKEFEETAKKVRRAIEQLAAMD
# Chain of Survivin-GB1Borealin f.l. complex (O15392 whole entry, chain 1 of 2): as the sequence (O15392 whole entry) above
# Chain of Survivin-GB1Borealin f.l. complex (Q53HL2 whole entry, chain 2 of 2): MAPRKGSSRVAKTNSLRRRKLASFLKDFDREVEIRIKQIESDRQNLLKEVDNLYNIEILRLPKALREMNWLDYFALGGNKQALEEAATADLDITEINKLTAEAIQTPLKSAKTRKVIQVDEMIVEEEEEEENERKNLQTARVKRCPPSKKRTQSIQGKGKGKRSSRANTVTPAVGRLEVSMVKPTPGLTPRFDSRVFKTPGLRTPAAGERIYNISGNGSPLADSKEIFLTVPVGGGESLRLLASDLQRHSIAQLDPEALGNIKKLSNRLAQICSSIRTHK
Binder,Kd [1] [nM],stoichiometry N [1],binding result [2]
B1,27,~0.75,
B2,,,binds
